Measurements as given in the supplement of paper PMC11780869.

Tested on: Bacillus subtilis
Assay: cleaved RNA product abundance (RNA/gDNA barcode ratio) relative to median wild-type variant (ratio to wild type); higher = more accumulation of the downstream cleavage product
In short: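 Reporter mRNAs based on truncated aprE or tetM carried barcoded, mutagenized RNase Y cleavage-site windows built from oligos with a 9% error rate and were integrated into the B. subtilis chromosome. Cultures grew in LB at 37°C from OD600 0.0003 to 0.3. Cleaved RNA was gel-selected, reverse transcribed and barcode-sequenced together with genomic DNA barcodes, and UMIs were collapsed. Cleaved product abundance is the per-construct ratio of RNA to gDNA barcodes, scaled to the median of constructs carrying the unmutated site.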

[1] = experiment (reporter, strain, medium): exp 8a: truncated aprE reporter, strain BJT201 with 2% xylose (RNase J1 expressed), cleavage site: glnRA (positions -5 to +31 mutated)
[2] = experiment (reporter, strain, medium): exp 4a: truncated aprE reporter, strain BJT201 with 2% xylose (RNase J1 expressed), cleavage site: cggR-gapA (positions -7 to +36 mutated)
[3] = experiment (reporter, strain, medium): exp 2b: truncated aprE reporter, strain BJT200, cleavage site: cggR-gapA (positions -7 to +36 mutated)
[4] = experiment (reporter, strain, medium): exp 6: tetM reporter, strain 168, cleavage site: cggR-gapA (positions -7 to +36 mutated)

Sequence	cleaved RNA product abundance [1]	cleaved RNA product abundance [2]	cleaved RNA product abundance [3]	other results
CGACATGTCCCGCTTCTTTCATTAATCCATTACCAACTGTTTTACTATATACATTTACCTTTTAAGAGGAGGAAT	0.262			
CGACATGTCCCGCTTCTTTCATTAATCCGTTAGCAACTATTTTGCTATATACATGTACCTTTTAAGAGGAGGAAT	1.19			
CGACATGTCCCGCTTCTTTCATTACTCCGTTAGCAACTGTCTTGCTATATACATTTACCTTTTAAGAGGAGGAAT	0.946			
CGACATGTCCCGCTTCTTTCATTAATCCGTTAGCCACTGTTTTGTTATATACATTTACCTTTTAAGAGGAGGAAT	0.247			
ACAGACGAAGGAGCCGCAAAGAAGTTATTAAGGGATGTATAATCCCTCATTATAAATATCTCTCACTTATTTAAA		0.387		
CGACATGTCCCGCTTCTTTCATTAATCCGTTAGCAACTGTTTATCTATATACATTTACCTTTTAAGAGGAGGAAT	0.501			
CGACATGTCCCGCTTCTTTCATTAATCCGTTAGCAACTGTTTTGATATATACATTTTCCTTTTAAGAGGAGGAAT	0.376			
ACAGACGAAGGAGCCGCAAATAAGTTATTAATGAATGAATAATCCCTCAATATAAATATCTCTCACTTATTTAAA		0.107		
CGACATGTCCCGCTTCTTTCATTATTCCGTTAACAACTGTTTTGCTATATACATTTATCTTTTAAGAGGAGGAAT	0.27			
ACAGACGAAGGAGCCGCAAAGAAGTTATTAAGGGAATAATAATCCCTCAATATAAATATCTCTCACTTATTTAAA		0.934	0.811	
CGACATGTCCCGCTTCTTTCATTAATCCGTTTGCAACTGTTTTGCTATATACATTTACCTTTTAAGAGGAGGAAT	0.549			
ACAGACGAAGGAGCCGCTAAGAAGTTATTAAGGGATTAATAATCCCTCAATATAAATATCTCTCACTTATTTAAA		1.02		
ACAGACGAAGGAGCCGCAAAGAAGTTATTAAGGGATGAATAATCCCTCAATATAAATATCTCTCACTTATTTAAG		0.646	0.868	
CGACATGTCCCGCTTCTTTCATTAATCCCTTAGCAACTGTTTTGCTAGATACATTTACCTTTTAAGAGGAGGAAT	0.127			
CGACATGTCCCGCTTCTTTCATTAATCCGTTAGCAACTGTTTTCCTATATACATTTACATTTTAAGAGGAGGAAT	0.549			
CGACATGTCCCGCTTCTTTCATTAATTCGTTAGCAACTGTTTTGCTATATACAATTACCTTTTAAGAGGAGGAAT	1.18			
ACAGACGAAGGAGCCGCAAAGAAGTAATTAAGGGATGAATAATCCCTCAATATAAGTATCTCTCACTTATTTAAA			0.119	
CGACATGTCCCGCTTCTTTCATTAATCTGTTAGCAACTGTTTTGCTATATCCATTTACCTTTTAAGAGGAGGAAT	0.263			
ACAGACGAAGGAGCCGCAAAGAAGATATTAAGGAATGAATAATCCCTCAATATAAATATCTCTCACTTATTTAAA		0.175	0.12	
CGACATGTCCCGCTTCTTTCATTAATCCGTTAGCAACTGTTTCGTTATATACATTTACCTTTTAAGAGGAGGAAT	0.222			

Sequence	cleaved RNA product abundance [1]	cleaved RNA product abundance [2]	cleaved RNA product abundance [3]	other results
ACAGACGAAGGAGCCGCAAATAAGTTCTTAAGGGATGAATAATCCCTCAATATAAATATCTCTCACTTATTTAAA		0.258	0.148	
ACAGACGAAGGAGCCGCAAAGAAATTATTAAGGGATGAATAATCCGTCAATATAAATATCTCTCACTTATTTAAA		0.261	0.192	
ACAGACGAAGGAGCCGCAAATAAGTTATTAAGAGATGAATAATCCCTCAATATAAATATCTCTCACTTATTTAAA		0.13	0.12	
ACAGACGAAGGAGCCGCAAAGAAGTTATTAAGGGATGAATAATCCCTGAAAATAAATATCTCTCACTTATTTAAA		0.615		
CGACATGTCCCGCTTCTTTCATTAATCCGTTAGCAATTGTTTTGCCATATACATTTACCTTTTAAGAGGAGGAAT	0.156			
ACAGACGAAGGAGCCGCAAAGAAGTTATTAAGGGATGAATAATCCTTAAATATAAATATCTCTCACTTATTTAAA		0.581		
ACAGACGAAGGAGCCGCAAAGTAGTTAATAAGGGATGAATAATCCCTCAATATAAATATCTCTCACTTATTTAAA		0.433	0.292	
ACAGACGAAGGAGCCGCAATGAAGTAATTAAGGGATGAATAATCCCTCAATATAAATATCTCTCACTTATTTAAA		0.364		
CGACATGTCCCGCTTCTTTCATTAATCCGTTAGCAACTATTTTGCAATATACATTTACCTTTTAAGAGGAGGAAT	0.531			
ACAGACGAAGGAGCCGCAAAGAAGTTCTTAAGGCATGAATAATCCCTCAATATAAATATCTCTCACTTATTTAAA		0.122	0.092	
CGACATGTCCCGCTTCTTTCATTAATACGATAGCAACTGTTTTGCTATATACATTTACCTTTTAAGAGGAGGAAT	0.935			
CGACATGTCCCGCTTCTTTCATTAATCCGTTAGTATCTGTTTTGCTATATACATTTACCTTTTAAGAGGAGGAAT	0.422			
ACAGACGAAGGAGCCGCAAAGAAGTTATTTAGGGATCAATAATCCCTCAATATAAATATCTCTCACTTATTTAAA		0.787		
ACAGACGAAGGAGCCGCAAAGAAGTTCTTAAGGTATGAATAATCCCTCAATATAAATATCTCTCACTTATTTAAA		0.145		
CGACATGTCCCGCTTCTTTCATTAATCCGTTAGGAACTGTTTTGCTATATAGATTTACCTTTTAAGAGGAGGAAT	0.191			
ACAGACGAAGGAGCCGCAAAGAAGTTATCAAGGGATGAATAATCCCTCAATATAAATGTCTCTCACTTATTTAAA		0.206	0.192	
CGACATGTCCCGCTTCTTTCATTAATCCGTTAGCAACTGTTTTGTTATATATATTTACCTTTTAAGAGGAGGAAT	0.298			
ACAGACGAAGGAGCCGCAAAGAAGTTATTAAGAGATGAATAATTCCTCAATATAAATATCTCTCACTTATTTAAA		0.106	0.0877	
ACAGACGAAGGAGCCGCAAACAAGTTATTAAGGGATGAATAATCCCTCTATATAAATATCTCTCACTTATTTAAA		0.46		
ACAGACGAAGGAGCCGCTAAGAAGTTATTAAGGGATGAATAATCCCTCTATATAAATATCTCTCACTTATTTAAA		0.509		

Sequence	cleaved RNA product abundance [1]	cleaved RNA product abundance [2]	cleaved RNA product abundance [3]	other results
ACAGACGAAGGAGCCGCAAAGAAGTTATTAAGGAATGAATAATCCCTCAATATAAATAACTCTCACTTATTTAAA		0.21		
CGACATGTCCCGCTTCTTTCATTAATCAGTTAGCAACAGTTTTGCTATATACATTTACCTTTTAAGAGGAGGAAT	0.832			
CGACATGTCCCGCTTCTTTCATTAATCCGTAAGCAACTGTTTTGCTACATACATTTACCTTTTAAGAGGAGGAAT	0.38			
ACAGACGAAGGAGCCGCAACGAAGTTATTAAGTGATGAATAATCCCTCAATATAAATATCTCTCACTTATTTAAA		0.13	0.0825	
CGACATGTCCCGCTTCTTTCATTATTCCGTTTGCAACTGTTTTGCTATATACATTTACCTTTTAAGAGGAGGAAT	0.543			
ACAGACGAAGGAGCCGCAAAGAAGTTATTAAGGGATGATTAATCCCTCAATATAAATATCTCTCACTTATTTAAA		0.844	0.75	cleaved RNA product abundance [4]: 0.94
ACAGACGAAGGAGCCGCATAAAAGTTATTAAGGCATGAATAATCCCTCAATATAAATATCTCTCACTTATTTAAA		0.0533		
CGACATGTCCCGCTTCTTTCATTAATCCGTTAGCAACTGTTTTGCTATATACATTTTCCTTTTAAGAGGAGGAAT	0.416			
ACAGACGAAGGAGCCGCAAAAAAGTTATTAAGGGATGAATAATCCCTCAATATAAACATCTCTCACTTATTTAAA		0.766		
ACAGACGAAGGAGCCGCAAATAAGTTATTAAGGGATCAATAATCCCTCAATATAAATATCTCTCACTTATTTAAA		0.721		cleaved RNA product abundance [4]: 0.865
ACAGACGAAGGAGCCGCAAAGAAGTTATTAAAGCATGAATAATCCCTCAATATAAATATCTCTCACTTATTTAAA		0.11	0.119	
CGACATGTCCCGCTTCTTTCATTAATCCGTTAGCAACTGTTTTTTTATATACATTTACCTTTTAAGAGGAGGAAT	0.718			
ACAGACGAAGGAGCCGCAAAGAAGTTATTAAGGAATTAATAATCCCTCAATATAAATATCTCTCACTTATTTAAA		0.137	0.103	
ACAGACGAAGGAGCCGCAAAGAAGTTATAAAGGGATGAATAATCCGTCAATATAAATATCTCTCACTTATTTAAA			0.154	
ACAGACGAAGGAGCCGCAAAGAAGTTATTAAGCCATGAATAATCCCTCAATATAAATATCTCTCACTTATTTAAA		0.106		cleaved RNA product abundance [4]: 0.058
ACAGACGAAGGAGCCGCAAAGAAGTTATTAATGGATGAAAAATCCCTCAATATAAATATCTCTCACTTATTTAAA		0.166	0.111	
CGACATGTCCCGCTTCTTTCATTAATCCGTTAGCAACTGTTTTGCTATATACATTTACCATTTAAGAGGAGGAAT	1.03			
ACAGACGAAGGAGCCGCAAAGAAGTTATTAAGAGATGAATAATCCCTCAATAAAAATATCTCTCACTTATTTAAA		0.113		
ACAGACGAAGGAGCCGCAAATAAGTTATTAAGGAATGAATAATCCCTCAATATAAATATCTCTCACTTATTTAAA		0.129	0.0785	
ACAGACGAAGGAGCCGCAAAGAAGTTATTAAGGGATAAATGATCCCTCAATATAAATATCTCTCACTTATTTAAA		0.455		
